Drawing on publication PMC3249379, this text covers Kd and stoichiometry N for two substances.

Holding throughout (experiment): AUC
Experiment [1] concerns the target GluA4 flip ectodomain, L484Y mutant (R. norvegicus).
The target is the same in experiment [2]. This is another data set of the same source.
Experiment [3] deals with GluA4 flip ectodomain, wild type (NTD and LBD in a tandem array) (R. norvegicus).

Where two headings read alike, the source gives them in different places.

As to “GluA4 flip ectodomain, L484Y mutant (domain or fragment)”, in experiment [1], the Kd (commonly the equilibrium constant for the complex coming apart) came to 1100 nM and the stoichiometry N (usually a count of units in the complex or per binding partner) amounted to 4. In experiment [2], this substance showed a Kd of 1500 nM.

For “GluA4 flip ectodomain, wild type (NTD and LBD in a tandem array) (domain or fragment)”, in experiment [3], the Kd is 300 nM and the stoichiometry N worked out at 2.
